Measured values published in IntAct's records for PubMed 11018022.

B1: Insulin receptor substrate 1 (Rattus norvegicus (Rat)), P35570 (parent)
chain: MASPPDTDGFSDVRKVGYLRKPKSMHKRFFVLRAASEAGGPARLEYYENEKKWRHKSSAPKRSIPLESCFNINKRADSKNKHLVALYTRDEHFAIAADSEAEQDSWYQALLQLHNRAKAHHDGAGGGCGGSCSGSSGVGEAGEDLSYDTGPGPAFKEVWQVILKPKGLGQTKNLIGIYRLCLTSKTISFVKLNSEAAAVVLQLMNIRRCGHSENFFFIEVGRSAVTGPGEFWMQVDDSVVAQNMHETILEAMRAMSDEFRPRTKSQSSSSCSNPISVPLRRHHLNNPPPSQVGLTRRSRTESITATSPASMVGGKPGSFRVRASSDGEGTMSRPASVDGSPVSPSTNRTHAHRHRGSSRLHPPLNHSRSIPMPSSRCSPSATSPVSLSSSSTSGHGSTSDCLFPRRSSASVSGSPSDGGFISSDEYGSSPCDFRSSFRSVTPDSLGHTPPARGEEELSNYICMGGKGASTLTAPNGHYILSRGGNGHRYIPGATMGTSPALTGDEAAGAADLDNRFRKRTHSAGTSPTISHQKTPSQSSVVSIEEYTEMMPAAYPPGGGSGGRLPGYRHSAFVPTHSYPEEGLEMHHLERRGGHHRPDSSNLHTDDGYMPMSPGVAPVPSNRKGNGDYMPMSPKSVSAPQQIINPIRRHPQRVDPNGYMMMSPSGSCSPDIGGGSCSSSSISAAPSGSSYGKPWTNGVGGHHTHALPHAKPPVESGGGKLLPCTGDYMNMSPVGDSNTSSPSECYYGPEDPQHKPVLSYYSLPRSFKHTQRPGEPEEGARHQHLRLSSSSGRLRYTATAEDSSSSTSSDSLGGGYCGARPESSVTHPHHHALQPHLPRKVDTAAQTNSRLARPTRLSLGDPKASTLPRVREQQQQQQQQQQSSLHPPEPKSPGEYVNIEFGSGQPGYLAGPATSRSSPSVRCLPQLHPAPREETGSEEYMNMDLGPGRRATWQESGGVELGRVGPAPPGAASICRPTRSVPNSRGDYMTMQIGCPRQSYVDTSPVAPVSYADMRTGIAAEKVSLPRTTGAAPPPSSTASASASVTPQGAAEQAAHSSLLGGPQGPGGMSAFTRVNLSPNHNQSAKVIRADTQGCRRRHSSETFSAPTRAANTVSFGAGAAGGGSGGGSEDVKRHSSASFENVWLRPGDLGGASKESAPGCGAAGGLEKSLNYIDLDLVKDVKQHPQDCPSQQQSLPPPPPHQPLGSNEGSSPRRSSEDLSTYASINFQKQPEDRQ

Variants of: B1
Conditions: with phip_mouse Phip

effect of a mutation on the interaction | Variant
disrupting interaction | W106A
